Experimental data taken from US20240082398A1, “METHODS OF PREPARING AND EXPANDING TYPE I INNATE LYMPHOID CELLS AND THERAPEUTIC USES THEREOF” (City of Hope, priority 2021, published 2024).

Tested on: IFN-γ^+ ILC1s
Experiment: In vitro stimulation: IFN-γ production by ILC1s
Assay type: cell-based, mouse
Conditions: neutralizing antibody 10 μg/ml with LSCs, or IL-7 100 ng/ml; 12 h, IL-12 plus IL-15
Source text: ILC1s from human peripheral blood were identified by a surface stain including a live/dead cell viability cell staining kit (Invitrogen) and the following monoclonal antibodies: lineage (FITC-conjugated anti-CD3, anti-CD4, anti-CD8, anti-CD14, anti-CD15, anti-CD16, anti-CD19, anti-CD20, anti-CD33, anti-CD34, anti-CD203c, anti-FceRI), CD56 (FITC, AF700 or BV421 conjugated anti-CD56), CD127 (APC-conjugated anti-CD127), CRTH2 (PE-Cy7-conjugated anti-CRTH2), and c-Kit (PE-conjugated anti-c-Kit). ILC from mice were identified by a surface stain and the following monoclonal antibodies: lineage (PE-Cy7-conjugated anti-CD3 and anti-CD19), NK1.1 (BV510-conjugated anti-NK1.1), NKp46 (BV421, FITC or AF647-conjugated anti-NKp46), CD49b (BUV395 or PE-conjugated anti-CD49b), and CD49a (BV711-conjugated anti-CD49a). Human LSCs were identified by lineage (FITC-conjugate anti-CD2, anti-CD3, anti-CD4, anti-CD8, anti-CD14, anti-CD19, anti-CD20, anti-Mac-1, anti-CD56, and anti-CD235a), CD45 (BV510-conjugated anti-CD45), CD34 (BV510-conjugate anti-CD34), and CD38 (BV605 conjugated anti-CD38). Mouse LSCs were identified by lineage (PE-Cy7 conjugated anti-CD3, anti-CD19, anti-B220, anti-Ly6G/C, anti-Mac-1, anti-CD11b, and anti-Ter119), Sca-1 (PE-CF594 or BV510-conjugate anti-Sca-1), and c-Kit (BV711-conjugated anti-c-Kit). […]

B1: IL-7: recombinant mouse IL-7 (100 ng/ml) (protein)
chain: ECHIKDKEGKAYESVLMISIDELDKMTGTDSNCPNNEPNFFRKHVCDDTKEAAFLNRAARKLKQFLKMNISEEFNVHLLTVSQGTQTLVNCTSKEEKNVKEQKKNDACFLKRLLREIKTCWNKILKGSI
  effect on production of IFN-γ in normal ILC1s: significantly increased
